Assay results as given in article doi:10.1101/2020.09.27.316166.
Read-outs that look alike come from different tables or passages of the source.

How the values were obtained:
[1] = target: T1, FL-hcGAS (human cyclic GMP-AMP synthase) (human, UniProt Q8N884 1-522); assay: phase separation microscopy
[2] = target: T1, FL-hcGAS (human cyclic GMP-AMP synthase); assay: phase separation microscopy; remark: listed apart in the source

T1 sequence (Q8N884 whole entry): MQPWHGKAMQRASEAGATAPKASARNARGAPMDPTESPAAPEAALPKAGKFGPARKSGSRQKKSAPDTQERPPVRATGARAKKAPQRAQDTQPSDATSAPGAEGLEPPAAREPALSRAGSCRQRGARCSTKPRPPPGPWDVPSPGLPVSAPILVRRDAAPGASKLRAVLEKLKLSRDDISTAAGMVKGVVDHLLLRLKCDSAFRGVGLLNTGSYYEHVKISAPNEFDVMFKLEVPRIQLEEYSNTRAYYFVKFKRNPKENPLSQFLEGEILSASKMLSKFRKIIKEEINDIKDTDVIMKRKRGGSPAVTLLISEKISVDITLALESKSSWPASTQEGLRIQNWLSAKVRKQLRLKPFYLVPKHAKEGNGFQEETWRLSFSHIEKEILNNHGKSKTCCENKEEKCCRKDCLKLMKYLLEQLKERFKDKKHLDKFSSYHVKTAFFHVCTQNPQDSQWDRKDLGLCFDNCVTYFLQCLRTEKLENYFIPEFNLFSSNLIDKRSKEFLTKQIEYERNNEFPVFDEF

B1: 48 nt ssDNA (AG repeat) (ssDNA)
DNA: AGAGAGAGAGAGAGAGAGAGAGAGAGAGAGAGAGAGAGAGAGAGAGAG
- binding result [1]: binds

B2: ISD (interferon stimulatory DNA, 45 bp) (dsDNA)
DNA 1: TACAGATCTACTAGTGATCTATGACTGATCTGTACATGATCTACA
DNA 2: TGTAGATCATGTACAGATCAGTCATAGATCACTAGTAGATCTGTA
- binding result [2]: binds
